Laboratory results from the supplement of paper PMC12042874.
± gives the uncertainty stated by the source.

Test: amyloid nucleation score (Sup35N fusion, yeast selection) (log enrichment); library NNK3; higher = more nucleation; inactive = no reads after selection
Procedure, shortened: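 Three technical output replicates were used for random libraries. Psi-negative yeast expressing peptides of 20 random codons fused to Sup35N were induced with 100 μM copper sulfate for 24 hours and grown 7 days at 30°C on medium lacking adenine and uracil, and input and output plasmid inserts were Illumina-sequenced, excluding sequences with under 100 input reads. The nucleation score is the DiMSum log enrichment of output over input reads, centred on the mode score of non-aggregating sequences.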

Row | Substance | amyloid nucleation score
1 | STLGTRSRDFLMIFSNRSTE | inactive
2 | STMDRSVKVVGPSSRPEGSV | inactive
3 | STPWHSRAISVALDRGDRWM | inactive
4 | STRTWQRF | -0.014 ± 0.28
5 | STSYSSAL | inactive
6 | STTLWAIALGLYNTVYSLAN | inactive
7 | STWYSFDFRYFLDTIVCHMF | 1.68 ± 0.11
8 | SVAFSWGMWCDSLDYFGSVS | inactive
9 | SVAKNCWCPKCGMSSTFDSI | inactive
10 | SVARWSENGSTKSQYSP | inactive
11 | SVDDTLSVNGSSRSCGRGCR | -1.02 ± 1.5
12 | SVDSREMHSVCCKSLLFGFD | inactive
13 | SVELNTKLVRYEVLSRMYRA | inactive
14 | SVESECRDMFSFKGFCVCVK | inactive
15 | SVFKIV | inactive
16 | SVFSFCLNYSYNCIDRCKFN | inactive
17 | SVGFRYHVLRKSKWCVYIVE | inactive
18 | SVHWSINWTGLERVSRTQRL | 0.523 ± 0.24
19 | SVIMGLTGDPGVALYVVTIM | inactive
20 | SVLCMGLHEIQYIRRFCRHW | inactive
21 | SVLCWFSVR | inactive
22 | SVLGVSTYSLCSSVNCIFRF | 2.74 ± 0.062
23 | SVLHVLYCVGSECVYVSSSR | inactive
24 | SVLWLVCMDCHPQKSVSCD | 0.863 ± 0.25
25 | SVMYVQNFPYLLSYWRSFIG | inactive
26 | SVNSVTWLFVRMQYFLFISC | inactive

Row | Substance | amyloid nucleation score
27 | SVNWWTVLCVHCPGYKNLLI | 0.465 ± 0.26
28 | SVRSGLARVSRTGMG | inactive
29 | SVSLLAFRDFALPDHTKHMT | inactive
30 | SVTSHDPMACHLLVCSV | inactive
31 | SVTWSHFGNWVRGAGLVMHR | 0.259 ± 0.39
32 | SVVIYWIWNCL | 3.09 ± 0.068
33 | SVVMVRSVYIERSVEPPAPG | -0.607 ± 1.4
34 | SVVPQDDILLNCGLEQAILG | inactive
35 | SVVSCMWMWHLVRYKH | -0.509 ± 1.8
36 | SVYNSYWKVQYRVVMS | 0.506 ± 0.21
37 | SVYTGISLSKFHGSPLVRV | -0.408 ± 1.2
38 | SWCQGNCGMLLAHRSYKRAY | -0.48 ± 0.55
39 | SWDVGGLYCKINGPIMLSLD | inactive
40 | SWFGLAIRSV | inactive
41 | SWFGYSVIDAKYGDIRTPVK | inactive
42 | SWFSVMGNVFRMHFERRYSV | inactive
43 | SWGPLINLRFQLLARCTPGL | inactive
44 | SWHDINVAFADSFIDSKETC | inactive
45 | SWIRRRPAVRLDRRMPRLAF | inactive
46 | SWRKCPNLPSCKTIPNAWVL | inactive
47 | SWSFDWFQSIVVGYLTCALA | inactive
48 | SWTQVKRYSRSTIAILAFHT | inactive
49 | SWVHVSTFWYVAFGFEKSAG | inactive
50 | SWWVTGIALEHGSGLTVQVH | inactive
51 | SYAANGVWRSYDLCYQCQKV | -0.712 ± 1.1
52 | SYCVRWNRIVDFVGSCRDHG | 1.11 ± 0.11

Row | Substance | amyloid nucleation score
53 | SYFNRYRCSSCHKPGYDHTW | inactive
54 | SYGLKISLSHTFRSGRGMCG | inactive
55 | SYKPLVMWLMSGVSASGLMC | inactive
56 | SYLCSGWDRSWAGISCEHSE | inactive
57 | SYLFYMHSSVLGSLMGQRDH | inactive
58 | SYLKRGKSVAIQLTYGS | 0.405 ± 0.67
59 | SYLSHNFNGECCTSLLMDNL | inactive
60 | SYMVKM | inactive
61 | SYMWPMSWQET | inactive
62 | SYRIIEWCSLGKDNLDIRTG | inactive
63 | SYRLCCSMIGFSTGGRSHVE | inactive
64 | SYSADLKLMIWSCLNLVVFQ | inactive
65 | SYSHRVVLRDTRTRQAKPRA | inactive
66 | SYVFTR | inactive
67 | SYVLLHHLLVMSWVRV | inactive
68 | SYVNIFHDGIIMNSYVAWGH | inactive
69 | SYVPSTMIRMIWIMAFHRGN | -0.024 ± 0.43
70 | SYWSYSSTFSILLSDSFAIS | inactive
71 | SYYYPNIVRIEHPHCTRHHA | inactive
72 | TACRFVSSRRELRIEVLTWF | -0.755 ± 1.8
73 | TADDNVIRLAYFNVTTPLWF | inactive
74 | TADYDYQAEVCCLVIMCVHN | inactive
75 | TAEDYFMKVY | inactive
76 | TAREMYSRKSRILRVILILS | inactive
77 | TARHKHGLSLCDGVADLRGC | inactive
78 | TARYIW | inactive
